Assay results from the RNAGym collection of RNA variant scans (doi:10.1073/pnas.2313332121).

B1: TPR t1 (parent)
chain: GACCAAUCUGCCCUCAGAGCUCGAGAACAUCUUCGGAUGCAGAGGAGGCAGGCUUCGGUGGCGCGAUAGCGCCAACGUCCUCAACCUCCAAUGCAUCCCACCACAUGAUGAUGCCUGAAGAGCCUUGGUUUUUUG

Variants of: B1
Experiment: polymerase ribozyme fitness, log enrichment relative to wild type (log ratio); higher = more active; in vitro selection for triplet polymerase activity
Method in brief: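 PCR was used to build mutant libraries for each subunit of a heterodimeric triplet polymerase ribozyme, which were then transcribed. A single in vitro selection round, in triplicate, used a frozen incubation at −7 °C and recovered extended constructs by gel excision, streptavidin beads and RT-PCR. Fitness is the logarithm of genotype enrichment relative to wild-type enrichment, averaged over replicates with inverse-variance weights. The logarithm is base 2, and after Illumina sequencing only genotypes with ≥10 input reads and ≥1 read per output were kept.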

| Variant | polymerase ribozyme fitness (log ratio) |
| --- | --- |
| GACCAAUCUGUCCUCAGAGCUCGAGAACAUCUUCGGAUGCAGAGGAGGCAGGCUUCGGUGGCGCGAUAGCGCCAACGUCCUCAACCUCCAAUGCAUCCCACCACAUGAUGAUGCCUGUAGAGCCUUGGUUUUUUG [C11U A118U] | -0.464 |
| GACCAAUCUGUGCUUAGAGCUCGAGAAGAUCUUCGGAAGCAGAGGAGGCAGGCUUUGGUGGCGCGAUACCGCCAACGUCCUCAACCUCCAAUGCAUCCCACCACAUGAUGAUGCCUGAAAAGCCUUGGUUUUUUG [C11U C12G C15U C28G U38A C56U G69C G120A] | -7.02 |
| GACCAAUCUGUCCUAAGAGCUCGAGAACAUCUUCGGAUGCAGAGGAGGCAGGCUUCGGUGGCGCGAUAGCGCCAACGUCCUCAACCUCCAAUGCAUCCCAGCACAUGAUGAUGCCUGAAGAGCCUUGGUUUUUUG [C11U C15A C101G] | -3.87 |
| GACCAAUCUGUCCUCAGAGCUCGAGAACAUCUUCGGAUGCAGAGGAGGCAGGCUUCGGUGGCGCGAUAGCGCCAACGUCCUCCACCUCCAAUGCAUCCCACCACAUGAUGAUGCCUGAAGAGCCUUGGUUUUUUG [C11U A83C] | -0.558 |
| GACCAAUCUGUCCUCAGAGCUCGAGAACAUCUUCGGAUGCAGAGGAGGCAGGCUUCGGUGGCGCGAUAGCGCCAACGUCCUCAGCCUCUAAUUCAUCCCACCACAUGAUGAUGCCUGAAGAGCCUUGGUUUUUUG [C11U A84G C89U G93U] | -2.61 |
| GACCAAUCUGUCCUCAGAGCUCGAGAACAUCUUCGGAUGCAGAGGAGGCAGGCUUCGGUGGCGCGAUAGCGCCAACGUCCUCAGCCUCAAAUGCAUCCCACCACAUGAUGAUGCCUGAAGAGCCUUGGUUUUUUG [C11U A84G C89A] | -4 |
| GACCAAUCUGUCUUCAGAGCUCGAGAACAUCUUCGGAUGCAGAGGAGGCCGGCUUCGGUGGCGCGAUAGCGCCAACGUCCUCAACCUCCAAUGCAUCCCACCCCAUGAUGAUGCCUGAAGAGCCAUGGUUUUUUG [C11U C13U A50C A103C U125A] | -5.37 |
| GACCAAUCUGUCUUCAGAGCUCGAGAACAUCUUCGGAUGCAGACGAGGCAGGCUUCGGUGGCGCGAUAGCGCCAACGUCCUCAACGUCCAAUGCAUCCCACCACAUGAUGAUGCCCGAAGAGCCUUGGUUUCUUG [C11U C13U G44C C86G U116C U132C] | -1.99 |
| GACCAAUCUGUCUUCAGAGCUGGAGAACAUCUUCGGAUGCAGAGGAGGCAGGCUUCGGUGGCGCGAUAGCGCCAACGUCCUAAACCUCCAAUGCAUCCCACCACAUGAUGAUGCCUGAAGAGCCUUGGUUUUUUG [C11U C13U C22G C82A] | -4.12 |
| GACCAAUCUGUCAUCAGAGCUCGAGAACAUCUUCGGAUGCAGAGGAGGCAGGCUUCGGUGGCGCGAUAGCGCCAACGUCCUCAACCUUCAAUGCAUCCCACCACAUGAUGAUGCCUGAAGAGCCUUGGUUUUUUG [C11U C13A C88U] | -2.38 |
| GACCAAUCUGUCCUACGAGCUCGAGAACAUCUGCGGAUGCAGAGGAGGGAGGCUUCGGUAGCGCAAUAGCGCCAACGUACUCAACCUCCCAUGCAUCCCACCACAUGAAGAUGCCUGAAGAGCCUUGGUUUUUUG [C11U C15A A16C U33G C49G G60A G65A C79A A90C U109A] | -8.01 |
| GACCAAUCUGUCCUCAGAGCUCGAGAACAUCUUCGGAUGCAGAGGAGGCAGGCUUCGGUGGCGCGAUAGCGCCAACGUCCUCAACCUCCAAUGCAUCCCCCCACAUGAUGAUGCCUGAAGAGCCUUGGUUUUUUG [C11U A100C] | -1.31 |
| GACCAAUCUGUACUCAGAGCUCGAGAACAUCUUCGGAUGCAGAGGAGGCAGGCUUCGGUGGCGCGAUAGCGCCAACGUCCUCAACCUCCAAUGCACCCCACCACAUGAUGAUGCCUGAAGAGCCUUGGUUUUUUG [C11U C12A U96C] | -2.18 |
| GACCAAUCUGUCCUCAGAGCUCGAGAACAUCUUCGGAUGCAGAGGAGGCAGGCUUCGGUGGCGCGAUAGCGCCUACGUCCUCAACCUCCAAUGCAUCCCACCACAUGAGGAUGCCAGAAGAGCCUUGGUUUUUUG [C11U A74U U109G U116A] | -6.7 |
| GACCAAUCUGUCCUAAGAGCUCGAGAACAUCUUCGGAUCCAGAGGAGGCAGGCUUCGGUGCCGCGAUAGCGCCAACGUCCUCAACCUCCAAUGCAUCCCACCACAUGAUGAUGACUGAAGAGCCUUGGUUUUUUG [C11U C15A G39C G61C C114A] | -5.39 |
| GACCAAUCUGUCCUAAGAGCUCGAGAACAUCUUCGGAUGCAGAGGAGGCAGGCUUUGGUGGCGCGAUAGCGCCAACGUCCUCAACCUCCAAUGCAUCCCACCACAUGAUGAUGCCUGAAGAGCCUUGGUUUUUUG [C11U C15A C56U] | -1.47 |
| GACCAAUCUGUUCUUAGAGCUCGAGAACAUCUUCGGAUGCAGAGGAGGCAGGAUUCGGUGGCGCGAUAGCGCCAACGUCUUCAACCUUCAAUGCAUCCCACCAUAUGAUGUUGCCUGGAGAGCCUUGGUUUUUUG [C11U C12U C15U C53A C80U C88U C104U A111U A118G] | -6.72 |
| GACCAAUCUGUCUUCAGAGCUCGAGAACAUCUUCGGAUGCAGAGGAGGCAGGUUUCGGUGGCUCGAUAGCGCCAACGUCCUCAACCUCCAAGGCAUCCCACCAUAUGAUGAAGCCUGAAGAGCCUUGGUUUUUUG [C11U C13U C53U G63U U92G C104U U112A] | -4.22 |
| GACCAAUCUGUCUUCAGGGCUCGAGAACAUCUUCGGAUGCAGAGGAGGCAGGCUUUGGUGGCGCGAUAGCGCCAACGUCCUCAACCUCCAAUGCAUCCCACCACAUGAAGAUGCCUGAAGAGCCUUGGUUUUUUG [C11U C13U A18G C56U U109A] | -4.43 |
| GACCAAUCUGUACUCAGAGCUCGAGAACAUCUUCGGAUGCCGAGGAGGCAGGCUUGGGUGGCGCGAUAUCGCCAACGUCCUCAACCUCCAAUGCAUCCCACCACAUGAUGAUGCCUGAAGAGCCUUGGUUUUUUG [C11U C12A A41C C56G G69U] | -2.94 |
| GACCAAUCUGUCCUCAGAGCUCGAGAACAUCUUCGGAUGCAGAGGAGGCAGGCUUCGGUGGCGCGAUAGCGCCAACGUCCUCAACCUCCAAUGCAUCCCACCACCUGAUGAUGCCUGGAGAGCCUUGGUUUUUUG [C11U A105C A118G] | -2.52 |
